Test results reported in US20160039936A1, “FIBROBLAST GROWTH FACTOR RECEPTOR INHIBITION FOR THE TREATMENT OF DISEASE” (UNIVERSITY OF MIAMI, priority 2011, published 2016).

B1: FGF23: recombinant mouse FGF23, 6His-tagged Tyr25-Val251 (Arg179Gln) (R&D Systems) (protein)
chain: YPDTSPLLGSNWGSLTHLYTATARTSYHLQIHRDGHVDGTPHQTIYSALMITSEDAGSVVITGAMTRRFLCMDLHGNIFGSLHFSPENCKFRQWTLENGYDVYLSQKHHYLVSLGRAKRIFQPGTNPPPFSQFLARRNEVPLLHFYTVRPRRHTQSAEDPPERDPLNVLKPRPRATPVPVSCSRELPSAEEGGPAASDPLGVLRRGRGDARGGAGGADRCRPFPRFV
modifications: left off: small tags and cut ends
B2: FGF2: recombinant mouse FGF2 (Ala11-Ser154) (R&D Systems) (protein)
chain: ALPEDGGAAFPPGHFKDPKRLYCKNGGFFLRIHPDGRVDGVREKSDPHVKLQLQAEERGVVSIKGVCANRYLAMKEDGRLLASKCVTEECFFFERLESNNYNTYRSRKYSSWYVALKRTGQYKLGSKTGPGQKAILFLPMSAKS

Assays:
[1] = tested on: NFAT; assay: NFAT gene reporter assay in NRVM; assay type: cell-based, rat; details: FGF 25 ng/ml, 2 hours
Experimental: The assay was done as described previously (Kuhn et al., 2009). Briefly, 24 hours after plating, NRVM were serum-starved and infected by an adenovirus (AdNFAT-luc, 20 moi) carrying a firefly luciferase construct under the transcriptional control of three consensus NFAT binding sites (Biomyx). To enable normalization of the ensuing measurements, NRVMs were also infected with an adenovirus (AdRenilla, 10 moi) encoding a renilla luciferase under the transcriptional control of a CMV promoter. Cells were incubated in FGF23 or FGF2 at 25 ng/ml for 2 hours after pre-treatment with or without cyclosporine A (1 μg/ml; Sigma-Aldrich), AZD4547 (5 nM; ChemieTek), or anti-FGFR4/U3-11 (U3Pharma; 10 μg/ml) for 60 minutes. Chemiluminescence was detected and quantified in 4×10^5 cells using the Dual-Luciferase Reporter Assay System (Promega) according to the manufacturer's instructions, and Infinite M200 PRO reader (Tecan). Firefly luciferase activities were then normalized to renilla luciferase activities. All experiments were conducted in triplicates and repeated three times.

[2] = tested on: C57BL/6 mice; assay: Intra-myocardial injection of FGF23 in mice; assay type: in vivo, mouse; details: 7.5 ng FGF23 intra-myocardial
Experimental: Twelve-week old adult C57BL/6 mice (Jackson Laboratories) underwent cardiac surgery using a standard operative procedure that has been described previously for intra-myocardial implantation of stem cells (Amado et al., Proc. Natl. Acad. Sci. U.S.A., 102(32):11474-11479, 2005). All procedures were performed by a single investigator who was blinded to the specific treatment group. All protocols and experimental procedures were approved by the Institutional Animal Care and Use Committee at the University of Miami Miller School of Medicine. Briefly, mice were anesthetized with isoflurane and an incision was made between the 3rd and 4th rib to reveal a cardiac window. Three injections of purified recombinant murine FGF23 in PBS or PBS alone were delivered into the free wall of the left ventricle via a 30-gauge needle attached to a standing Hamilton syringe. At each of the three sites, 10 μl were injected for a total of 30 μl containing a total of 7.5 ng FGF23. Cardiac function was evaluated by Vevo 770 imaging system (Visual Sonics, Toronto, Canada) at baseline and 2 weeks after surgery. Long and short axis 2D parasternal views and short axis M mode views were recorded under general anesthesia with isoflurane inhalation delivered through a nose mask. The heart rate was maintained above 400 bpm with controlled body temperature set to 37° C. At 7- and 14-days post-injection, animals were sacrificed, hearts were isolated, perfused ex-vivo (6 ml of 10% Formalin with 4 ml of 20 mM KCl), stored overnight in 10% formalin for fixation, and then serially sectioned (7 μm slices) and stained with hematoxylin and eosin. Age-matched untreated animals were sacrificed at 14 weeks of life. […]
Short-axis cardiac sections were used to quantify myocardial thickness by measuring the distance from the inner to the outer myocardial zone at the mid-chamber zone. […] Since klothro-ablated kl/kl mice display severe growth retardation with small hearts (Kuro-o et al., Nature, 390(6655):45-51, 1997), we also measured relative wall thickness calculated as two times the anterior wall thickness divided by left ventricular internal diameter. Total RNA was isolated from flash frozen hearts using TRIzol (Invitrogen) and RT-PCR analyses were performed as described above.
We measured cross-sectional surface area of cardiac myocytes in paraffin-embedded short-axis sections of the heart. Briefly, 7 μm thick sections were deparaffinized according to our established protocols. To specifically label cardiac myocytes, we used mouse monoclonal MF20 antibody against sarcomeric myosin at 1:200 and Cy5-conjugated donkey-anti mouse (Invitrogen) as secondary antibody at 1:400. To visualize nuclei, fixed tissue was incubated with 4′,6-diamidino-2-phenylindole (DAPI; 400 ng/ml in PBS) for 5 minutes. To visualize cellular borders, fixed tissue was incubated with wheat germ agglutinin (WGA) conjugated to Alexa Fluor 555 (Invitrogen) at 1 mg/ml in PBS containing 10 mM sodium azide. Immunofluorescence images were taken on a Leica TCS-SP5 confocal microscope with a 63× oil objective. Leica AF6000 fluorescence software was used to quantify cross-sectional cell surface area of 25 cells per field at four fields along the mid-chamber free wall based on WGA-positive staining.
Blood was collected at sacrifice via cardiac puncture and was centrifuged at 4° C. and 14,000 rpm for 15 minutes. Plasma supernatants were collected, stored at −80° C., and subsequently analyzed in batches for FGF23 (C-terminal mouse assay, Immutopics), PTH (1-84 assay, Alpco Immunoassays), and phosphate, calcium, BUN and creatinine (Ortho Vitros 250 Chemistry Analyzer).

Molecule | luciferase activity [1] | cross-sectional surface area of cardiac myocytes (WGA) [2] | expression of β-MHC, ANP and BNP [2] | α-MHC and MCAD mRNA levels [2] | thickness of the left ventricular free wall ([2]; day 7, vs vehicle) | left ventricular internal diameter in diastole ([2]; day 14) | relative wall thickness ([2]; day 14) | thickness of the left ventricular free wall ([2]; day 14) | ratio of heart weight to tibial length ([2]; day 14, vs vehicle) | thickness of the interventricular septum ([2]; day 14, vs vehicle) | levels of FGF23, phosphate, calcium, PTH, BUN, or creatinine vs vehicle ([2]; days 7 and 14) | ejection fraction ([2]; echocardiography over time)
B1 | significant elevation | significant increase | increase | decrease | significant increase | significantly decreased | increased | increased further | significantly increased | increased significantly | no significant differences | no change
B2 | did not increase |  |  |  |  |  |  |  |  |  |  | 
